The text below walks through data of patent US20240262910A1 (Memorial Sloan Kettering, published 2024).

Residue numbers refer to the chain shown, from its start.

For assay [1], the target named is T1, human CD33, full length, on cells (human, UniProt P20138 18-364).
T1 construct: NIH-3T3 cells stably overexpressing full-length human CD33, or AML lines U937 and Set2 with endogenous CD33; the cell line is named under assay; also called 3T3-huCD33; 3T3-CD33
Description: flow cytometry, U937 cells. On the procedure:
(§1) Binding to CD33 on Cells. To assess the binding of TDI-Y-006, TDI-Y-007 and 1J19 to cell surface-bound CD33, 3T3 cells overexpressing CD33, as well as the U937 AML cell line, which expresses endogenous CD33, were used. U937 CD33KO or NALM6 were included as negative controls. Briefly, NALM6, U937 CD33+ and KO cells were blocked with human IgG Fc for 20 minutes on ice. The recombinant antibodies were then serially diluted starting at 100 μg/mL concentration and added for 30 minutes on ice. AlexaFluor 647-conjugated goat anti-human F(ab′)2 was added to cells for 30 minutes on ice, washed and analyzed by flow cytometry, normalized to secondary only staining (MFI ratio). EC50 values were determined by non-linear regression.

Assay [2] addresses T1, human CD33, full length, on cells. Description: flow cytometry, 3T3-CD33 cells. On the procedure:
as §1
(In general: A flow cytometer gives signals particle by particle.)

For assay [3], the target named is T2, human CD33 extracellular domain with 6xHis-tag (human, UniProt P20138 18-259).
T2 construct: Bought (R&D Systems, Acro Biosystems); also called huCD33-His; huCD33(ECD)-His
Description: BLI, huCD33-His on anti-penta-His sensor, no competitor. On the procedure:
Epitope Binning. Epitope binning was carried out by a BLI competition experiment using an Octet Red96e. Human CD33-His was captured by an anti-penta-His biosensor. A 4×4 matrix with TDI-Y-006, TDI-Y-007, 1J19 and H195 was tested. A reference biosensor was used to determine the overall capture level for each antibody. After pre-binding the antibodies at saturation levels, the biosensors were dipped into antibody solutions to assess competition. […] However, when TDI-Y-006 was pre-bound, binding of TDI-Y-007 was blocked. […] Similarly, 1J19 and H195 have epitopes that partially overlap. No competition was observed between antibodies binding to the membrane-proximal IgC2 domain (TDI-Y-006 and TDI-Y-007) and antibodies binding to the membrane-distal IgV domain (1J19 and H195).
For orientation: Biolayer interferometry detects binding as a change in optical thickness at a sensor tip.

The target in assay [4] is T2, human CD33 extracellular domain with …. Description: BLI (Octet Red96e), antibody on anti-huFc sensor, huCD33-His as analyte, 1:1 fit. On the procedure:
(§2) The binding affinity to human CD33 protein was measured by biolayer interferometry (BLI) using an Octet Red96e. All experiments were carried out using kinetic buffer (PBS pH 7.4, 0.01% BSA, 0.002% Tween-20). The antibodies were captured by an anti-huFc biosensor and a 7-point, 2-fold dilution series of huCD33-His was used as analyte. The data was processed by double reference subtraction, and response curves were globally fit to a 1:1 Langmuir binding model. […] The binding affinities are similar to the H195 reference antibody.

Assay [5] deals with T1, human CD33, full length, on cells. Kind of assay: flow cytometry on 3T3 cells overexpressing human CD33, antibody titration, AlexaFluor 647 goat anti-human F(ab')2 detection, MFI ratio to secondary only. On the procedure: as §1
The target is the same in assay [6]. Kind of assay: summary table; flow cytometry, AML cell line U937; U937 AML cell line (endogenous CD33). On the procedure:
as §1

Assay [7] shares this target. Description: summary table; flow cytometry, 3T3 cells overexpressing CD33; 3T3 cells overexpressing CD33. On the procedure:
as §1

The target in assay [8] is T3, mouse CD33 extracellular domain with 6xHis-tag (mouse, UniProt Q63994 18-240).
T3 construct: range 18-240; also called moCD33-His; moCD33(ECD)-His
T3 sequence: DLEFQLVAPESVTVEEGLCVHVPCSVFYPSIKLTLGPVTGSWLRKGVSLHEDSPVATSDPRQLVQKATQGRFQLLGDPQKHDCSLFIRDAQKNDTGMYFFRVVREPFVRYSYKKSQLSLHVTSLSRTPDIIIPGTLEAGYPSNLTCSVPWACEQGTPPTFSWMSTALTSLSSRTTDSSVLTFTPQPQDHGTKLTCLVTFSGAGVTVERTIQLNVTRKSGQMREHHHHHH
Description: ELISA: CD33-His protein at 5 µg/mL captured on Ni-NTA plate, antibody at 10 µg/mL in triplicate, HRP anti-human Fc detection, OD450. On the procedure: Binding to Recombinant CD33 Protein. Binding to CD33 protein was carried out by ELISA using human CD33-His (full-length or IgC2 domain), cynomolgus monkey CD33-His and mouse CD33-His. Recombinant proteins at 5 μg/mL were captured by pre-blocked Ni-NTA plates. Candidate antibodies were added at 10 μg/mL in triplicate and detected using horseradish peroxidase (HRP)-conjugated anti-human Fc antibody. […] No binding was detected to cynomolgus or mouse CD33 for either TDI-Y-006 and TDI-Y-007. 1J19 and H195 only bound to full-length human CD33 ECD but not to IgC2 as these antibodies target the IgV domain.
Background: ELISA stands for enzyme-linked immunosorbent assay.

Assay [9] has as its target T2, human CD33 extracellular domain with …. Kind of assay: ELISA, hybridoma supernatant.
For assay [10], the target named is T4, human CD33 IgC2 type domain with 6xHis-tag (human, UniProt P20138 140-259).
T4 construct: Produced at LakePharma; also called huCD33IgC2-His; CD33 IgC2-6xHis
Description: ELISA, hybridoma supernatant.

Assay [11] deals with T1, human CD33, full length, on cells. Description: flow cytometry, purified mAb, Set2 cells.
Assay [12] has the same target. Kind of assay: flow cytometry, purified mAb, U937 cells.
Assay [13] shares this target. Kind of assay: flow cytometry, hybridoma supernatant, U937 cells.
Assay [14] has the same target. Description: flow cytometry, hybridoma supernatant, 3T3-huCD33 cells.
In assay [15] the target is T5, human CD33 IgC2 domain only, on NIH-3T3 cells (human, UniProt P20138 140-364).
T5 construct: the whole entry is named here; also called 3T3-huCD33IgC2; 3T3 CD33-IgC2
Kind of assay: flow cytometry, hybridoma supernatant, 3T3-huCD33IgC2 cells.

Assay [16] concerns the target T3, mouse CD33 extracellular domain with …. Kind of assay: ELISA on recombinant moCD33-His, purified hybridoma subclone antibody, readout RLU; antibody concentration not given.
For assay [17], the target named is T2, human CD33 extracellular domain with …. Kind of assay: summary table; binding affinity to soluble CD33 (BLI). On the procedure:
as §2

Assay [18] deals with T1, human CD33, full length, on cells. Kind of assay: summary table; flow cytometry, 3T3 cells overexpressing CD33. On the procedure:
as §1

T5 sequence (P20138 140-364 limits assumed): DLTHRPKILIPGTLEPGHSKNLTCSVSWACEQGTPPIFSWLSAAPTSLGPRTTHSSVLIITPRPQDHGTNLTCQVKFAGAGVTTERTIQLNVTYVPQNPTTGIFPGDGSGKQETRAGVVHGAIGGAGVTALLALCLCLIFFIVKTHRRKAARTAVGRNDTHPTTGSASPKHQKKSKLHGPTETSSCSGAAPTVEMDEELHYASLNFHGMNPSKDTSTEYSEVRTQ
T2 sequence (P20138 other isoform, or with tags, fused parts or gaps): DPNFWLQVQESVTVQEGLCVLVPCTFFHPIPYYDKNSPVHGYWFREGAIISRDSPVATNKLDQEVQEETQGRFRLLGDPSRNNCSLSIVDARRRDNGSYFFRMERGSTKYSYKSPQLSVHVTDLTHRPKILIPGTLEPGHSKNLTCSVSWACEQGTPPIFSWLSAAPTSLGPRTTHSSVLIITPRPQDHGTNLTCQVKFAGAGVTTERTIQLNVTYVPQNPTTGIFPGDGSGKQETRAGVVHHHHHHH
T1 sequence (P20138 18-364): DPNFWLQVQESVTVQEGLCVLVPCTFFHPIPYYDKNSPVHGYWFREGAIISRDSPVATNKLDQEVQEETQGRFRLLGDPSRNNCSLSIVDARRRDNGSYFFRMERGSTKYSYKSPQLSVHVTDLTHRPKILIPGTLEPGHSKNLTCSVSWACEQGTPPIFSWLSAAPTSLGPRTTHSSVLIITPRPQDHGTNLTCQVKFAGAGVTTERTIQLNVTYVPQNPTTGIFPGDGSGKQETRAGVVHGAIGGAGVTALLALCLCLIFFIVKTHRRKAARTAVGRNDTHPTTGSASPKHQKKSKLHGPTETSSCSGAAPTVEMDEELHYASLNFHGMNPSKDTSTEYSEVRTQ
T4 sequence (P20138 other isoform, or with tags, fused parts or gaps): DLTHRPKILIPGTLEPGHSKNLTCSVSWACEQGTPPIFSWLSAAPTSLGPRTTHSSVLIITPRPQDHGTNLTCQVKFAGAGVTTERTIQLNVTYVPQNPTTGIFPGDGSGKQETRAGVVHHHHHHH

B1: 1J19 (recombinant, human IgG1 constant region) (antibody, V domains shown)
VH: QVQLQQSGPGLVKPSQTLSLTCAISGDSVSSNSAAWNWIRQSPSRGLEWLGRTYFRSKWYNVYAVSVKSRITINPDTSKNQFSLQLNSVTPEDTAVYYCASEGGSYYDHWGQGTLVTVSS
VL: DIQMTQSPSSVSASVGDRVTITCRASQGISNWLTWYQQKPGKAPKLLIYAASSLQSGVPSRFSGSGSGTDFTLTISSLQPEDFATYYCQQADSFPFTFGPGTKVDIK
As usually defined, the EC50 is the concentration that produces a half-maximal response. A high value points to a need for much substance. Usually Kd stands for a measure of binding affinity in units of concentration. A high value points to weaker binding. As usually defined, the kon is a measure of how fast the partners come together. Higher therefore signals faster complex formation. Broadly, the EC50 (read off the curve) is the concentration at which the effect is half-maximal. As to B1, the values for the half-maximal effective concentration (EC50) in assay [1] and in [2] were 2.16 nM and 6.54 nM, respectively. Also, the “BLI total binding capacity (Reference Biosensor)” value (“BLI total binding capacity” for short) in [3] was determined as 0.432. For the same molecule, the Kd in assay [4] was determined as 1.1 nM. Besides, in [4], the kon was 266000 M⁻¹ s⁻¹. Also, the “EC50 (read off the curve)” value in assay [5] is about 4 nM.

B2: TDI-Y-007 (antibody, V domains shown)
VH: EVHLLESGGGLVQPGGSLRLSCAASGFIFSSNAMSWVRQAPGKGLEWVSAISGYGGNTYYADSVKGRFTISRDNSKNTLYLQMNSLRAEDTAVYYCAKWGTYIVGATGDYWGQGTLVTVSS
VL: QSALTQPPSASGSPGQSVTISCTGTSNDVGGYNYVSWYQQHPGKAPKLLIYEVSKRPSGVPDRFSGSQSGNTASLTVSGLQAEDEADYYCSSYAGSNNWVFGGGTKLTVL
notes: also called 4B2 (recombinant, human IgG1 constant region)
By koff is commonly meant the rate constant with which the complex falls apart. Higher therefore signals fast dissociation. Consider B2, for which the EC50 in assay [1] turned out to be 44.9 nM; in assay [2], 17 nM; in assay [6] it was 45 nM; in assay [7], 17 nM. In addition, in [3], the “BLI total binding capacity” value worked out at 0.299. The molecule also displayed a Kd in assay [4] of 1.29 nM. In [4], this molecule had a koff of 0.000597 s⁻¹. In [4], this molecule came in with a kon of 464000 M⁻¹ s⁻¹. Moreover, the binding result in [8] is on record as “no binding (tested: 10 µg/mL)”. The “EC50 (read off the curve)” value in [5] is about 40 nM.

B3: 4-B2 (hybridoma antibody) (antibody, V domains shown)
VH: B2 VH
VL: B2 VL
notes: AlivaMab mouse hybridoma antibody; also called 4-B2-A
Regarding B3, the figures for the RLU in assay [9] and in assay [10] were 392000 RLU and 101000 RLU, respectively. The EC50 in [11] is 28.5 nM; in assay [12], 40.5 nM. The MFI in assay [13] came to 152000 MFI; in assay [14], 2.82e+06 MFI; in [15], 358000 MFI. In addition, the binding result in [16] is “no binding”.

B4: TDI-Y-006 (antibody, V domains shown)
VH: EVQLLESGGGLVQPGGSLRLSCAASGFTFSTYAMSWVRQAPGKGLEWVSAISGRGGSTYYTDSVKGRFTISRDNSKNTVSLQMNSLRAEDTAVYYCAGRGDYYYYYGMDVWGQGTTVTVSA
VL: DIVMTQSPLSSPVTLGQPASFSCRSSQSLVYSDGNTYLSWLQQRPGQPPRLLIYKISNRFSGVPDRFSGSGAGTDFTLKISRVEAEDVGVYYCMQSTQFPHTFGQGTKLEIK
notes: also called 3P14 (recombinant, human IgG1 constant region)
Regarding B4, the EC50 in assay [1] was 8.5 nM; in assay [2], 5 nM; in assay [18], 5 nM; in assay [6], 8.5 nM. Further, the Kd in assay [17] came to 1.2 nM; in [4], 1.21 nM. Besides, the koff in [17] was determined as 0.000359 s⁻¹. Also, the kon in [17] and in assay [4] was 296000 M⁻¹ s⁻¹ throughout. Moreover, the “BLI total binding capacity” value in [3] was 0.86. Moreover, in assay [8], the binding result is listed as “no binding (tested: 10 µg/mL)”. The “EC50 (read off the curve)” value in [5] was about 8 nM.

B5: 3-P14 (hybridoma antibody) (antibody, V domains shown)
VH: B4 VH
VL: B4 VL
notes: AlivaMab mouse hybridoma antibody; also called 3-P14-A
Regarding B5, the RLU in assay [9] was found to be 546000 RLU; in assay [10], 107000 RLU. In addition, the EC50 in assay [11] stood at 2.4 nM; in assay [12], 3.27 nM. The MFI in [13] was 248000 MFI; in assay [14], 3.06e+06 MFI; in assay [15], 544000 MFI.

B6: 4-P3 (antibody, V domains shown)
VH: B4 VH
VL: B4 VL with F21I
notes: AlivaMab mouse hybridoma antibody; also called 4-P3-A
Take B6: the RLU in assay [9] amounted to 484000 RLU. Also, the EC50 in [11] amounted to 2 nM; in assay [12], 2.5 nM. The MFI was found to be 188000 MFI in assay [13], 1.32e+06 MFI in assay [14] and 391000 MFI in [15]. Moreover, in assay [16], the binding result is “no binding”.
